Laboratory results as given in patent US20240116985A1 (published 2024).
Starred links: 1 amine or outer side, 2 acyl side, 3 side chain; linkers in the order of their positions; H or OH if unused. Positions of bridges follow the written chain, without caps; N, C: chain ends. Non-standard residues stand in square brackets, D forms with d. Primed or numbered codes have the meaning given here. PyrS2″ = (S)-3-amino-1-((pent-4-en-1-yloxy)carbonyl)pyrrolidine-3-carboxylic acid (stapling residue), C=CCCCOC(=O)N1CC[C@@](N[*:1])(C(=O)[*:2])C1; B5(16) = 2-amino-2-(pent-4-en-1-yl)hept-6-enoic acid = 2,2-bis(4-pentenyl)glycine (stitching residue), C=CCCCC(CCCC=C)(N[*:1])C(=O)[*:2]; B5(4) = 2,2-bis(4-pentenyl)glycine = 2-amino-2-(pent-4-en-1-yl)hept-6-enoic acid (stitching residue), C=CCCCC(CCCC=C)(N[*:1])C(=O)[*:2]; PyrS2 = (S)-3-amino-1-((pent-4-en-1-yloxy)carbonyl)pyrrolidine-3-carboxylic acid, C=CCCCOC(=O)N1CC[C@@](N[*:1])(C(=O)[*:2])C1; Phe(2-Cl) = N[C@@H](Cc1ccccc1Cl)C(=O)O; Bta = N[C@@H](Cc1csc2ccccc12)C(=O)O; αAllylPro = C=CC[C@@]1(C(=O)O)CCCN1

T1: full-length beta-Catenin (Uniprot ID P35222) (Homo sapiens (Human), UniProt P35222 1-781)
T1 construct: Tags are not described; Also used here as the target of the DLD1 TCF reporter read-out (endogenous beta-catenin in DLD1 cells); also called bCat; B-Catenin
T1 sequence: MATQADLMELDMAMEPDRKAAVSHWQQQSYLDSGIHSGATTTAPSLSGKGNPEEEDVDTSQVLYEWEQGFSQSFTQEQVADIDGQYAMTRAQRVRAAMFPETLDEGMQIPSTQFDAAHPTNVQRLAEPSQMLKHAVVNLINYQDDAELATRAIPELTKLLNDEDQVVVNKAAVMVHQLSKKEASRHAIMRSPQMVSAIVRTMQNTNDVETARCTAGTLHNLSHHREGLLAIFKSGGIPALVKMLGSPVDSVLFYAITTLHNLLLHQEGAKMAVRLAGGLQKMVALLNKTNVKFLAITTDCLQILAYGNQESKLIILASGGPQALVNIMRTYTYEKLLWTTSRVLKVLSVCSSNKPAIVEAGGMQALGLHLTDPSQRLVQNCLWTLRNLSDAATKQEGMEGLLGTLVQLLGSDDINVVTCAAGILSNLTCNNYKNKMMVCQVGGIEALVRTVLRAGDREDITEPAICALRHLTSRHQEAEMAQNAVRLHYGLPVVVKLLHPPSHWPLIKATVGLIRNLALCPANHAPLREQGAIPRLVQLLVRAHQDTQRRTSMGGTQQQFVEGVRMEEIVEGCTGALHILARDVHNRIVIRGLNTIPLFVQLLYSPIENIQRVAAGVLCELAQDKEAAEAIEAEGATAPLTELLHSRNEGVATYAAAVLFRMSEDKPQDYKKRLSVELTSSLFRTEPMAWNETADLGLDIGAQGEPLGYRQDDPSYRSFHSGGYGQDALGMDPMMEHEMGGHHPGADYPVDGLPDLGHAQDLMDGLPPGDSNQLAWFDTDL

T2: B-cat-Halo (UniProt P35222 1-781)
T2 sequence (looked up): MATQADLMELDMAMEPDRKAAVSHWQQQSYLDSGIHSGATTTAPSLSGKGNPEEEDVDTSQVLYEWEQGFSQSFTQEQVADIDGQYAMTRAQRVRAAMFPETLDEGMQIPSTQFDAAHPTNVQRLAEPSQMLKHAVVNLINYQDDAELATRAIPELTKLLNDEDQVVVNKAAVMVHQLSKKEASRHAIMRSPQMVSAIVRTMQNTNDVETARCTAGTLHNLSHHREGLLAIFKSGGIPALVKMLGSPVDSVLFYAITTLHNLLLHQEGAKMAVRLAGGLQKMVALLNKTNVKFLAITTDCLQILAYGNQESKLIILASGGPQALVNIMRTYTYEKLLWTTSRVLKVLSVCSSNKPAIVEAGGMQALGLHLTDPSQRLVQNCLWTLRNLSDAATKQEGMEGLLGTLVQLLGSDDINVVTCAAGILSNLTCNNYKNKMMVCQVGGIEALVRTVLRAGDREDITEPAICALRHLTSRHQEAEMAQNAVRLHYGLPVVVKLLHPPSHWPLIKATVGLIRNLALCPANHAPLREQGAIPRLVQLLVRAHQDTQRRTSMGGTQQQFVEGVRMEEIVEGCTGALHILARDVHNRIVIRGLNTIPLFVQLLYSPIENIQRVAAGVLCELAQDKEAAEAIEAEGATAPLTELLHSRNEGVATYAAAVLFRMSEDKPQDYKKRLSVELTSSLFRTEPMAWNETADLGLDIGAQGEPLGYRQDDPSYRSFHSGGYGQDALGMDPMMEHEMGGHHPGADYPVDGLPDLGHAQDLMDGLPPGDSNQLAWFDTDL


Experiments:
[1] = target: T1, full-length beta-Catenin (Uniprot ID …); experiment: fluorescence polarization competition; full-length beta-catenin with 5FAM-TCF4(10-53) probe, peptide titrated
Method: The plate was incubated protected from light for 60 minutes at 20° C. prior to read. Reads were performed on a CLARIOstar plate reader (BMG Labtech) in duplicate, and data were fitted to a 1:1 binding model with hill slope using an in-house script. All provided concentrations are final concentrations.

B-cat-Halo = target: T2, B-cat-Halo; experiment: cell-based or functional assay

IC50 [1]	NanoBRET Abs IC50 (B-cat-Halo)	Binder
12 nM	> 20000 nM	Ac-[αAllylPro]DF[B5(16)]DDAAFT[PyrS2″][Phe(2-Cl)][Bta]Q-NH2 (staple 1-4, 4-11, also called Ac-PL3-Asp-Phe-B5-Asp-Asp-Ala-Ala-Phe-Thr-PyrS2-2C1F-BztA-Gln-NH2) [I-1043]
5 nM	28400 nM	Ac-[αAllylPro]DF[B5(16)]DDAAFN[PyrS2″][Phe(2-Cl)][Bta]S-NH2 (staple 1-4, 4-11, also called Ac-PL3-Asp-Phe-B5-Asp-Asp-Ala-Ala-Phe-Asn-PyrS2-2C1F-BztA-Ser-NH2) [I-1047]
14 nM	> 20000 nM	Ac-[αAllylPro]DF[B5(4)]DDAAFS[PyrS2][Phe(2-Cl)][Bta]S-NH2 (staple 1-4, 4-11, also called Ac-PL3-Asp-Phe-B5-Asp-Asp-Ala-Ala-Phe-Ser-PyrS2-2C1F-BztA-Ser-NH2) [I-1051]
6 nM	–	Ac-[αAllylPro]DF[B5(4)]DDAAFT[PyrS2″][Phe(2-Cl)][Bta]S-NH2 (staple 1-4, 4-11, also called Ac-PL3-Asp-Phe-B5-Asp-Asp-Ala-Ala-Phe-Thr-PyrS2-2C1F-BztA-Ser-NH2) [I-1049]
